B1: RHOBTB3 (parent)
chain: GGADIIVIKYNVNDKFSFHEVKDN
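Further: lentivirally expressed fusions sorted by FACS into six bins by GFP to DsRed ratio, PSI derived from sequencing read proportions per bin multiplied by bin number.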

Variants of: B1
Assay: protein stability index of a GFP-peptide fusion (GPS, HEK-293T) (PSI 1-6); higher = more stable
Conditions: c terminus: a fixed tail appended
With GGADCIVIKYNVNDKFSFHEVKDN [I5C] the protein stability index was 1.74.
GGADNIVIKYNVNDKFSFHEVKDN [I5N] showed a protein stability index of 3.69.
GGADTIVIKYNVNDKFSFHEVKDN [I5T] showed a protein stability index of 2.47.
For LGADIIVIKYNVNDKFSFHEVKDN [G1L], the protein stability index was 2.44.
For EGADIIVIKYNVNDKFSFHEVKDN [G1E], the protein stability index was 2.13.
For MGADIIVIKYNVNDKFSFHEVKDN [G1M], the protein stability index was 1.97.
Variant WGADIIVIKYNVNDKFSFHEVKDN [G1W] has a protein stability index of 1.54.
GGADIIVIKYNVNDKFSFHEVKDK [N24K] gave a protein stability index of 2.73.
In the case of GGADIIVIKYNVNDKFSFHEVKDR [N24R], the protein stability index is reported as 1.86.
In the case of GGADIIVIKYNVNDKFSFHEVKDH [N24H], the protein stability index is reported as 2.14.
Work on GGADIIVIKYNVNDKFSFHEVKDC [N24C] yielded a protein stability index of 2.34.
Variant GGADIIVIKYNVNDKFSFHEVKAN [D23A] has a protein stability index of 2.71.
Variant GGACIIVIKYNVNDKFSFHEVKDN [D4C] has a protein stability index of 2.96.
GGALIIVIKYNVNDKFSFHEVKDN [D4L] showed a protein stability index of 1.8.
GGAKIIVIKYNVNDKFSFHEVKDN [D4K] gave a protein stability index of 4.09.
GGAFIIVIKYNVNDKFSFHEVKDN [D4F] showed a protein stability index of 1.97.
GGAMIIVIKYNVNDKFSFHEVKDN [D4M] showed a protein stability index of 3.48.
With GGAWIIVIKYNVNDKFSFHEVKDN [D4W] the protein stability index was 2.41.
Work on GGADIIVIKANVNDKFSFHEVKDN [Y10A] yielded a protein stability index of 1.27.
For GGADIIVIKTNVNDKFSFHEVKDN [Y10T], the protein stability index was 1.92.
GGADIIVIKQNVNDKFSFHEVKDN [Y10Q] gave a protein stability index of 1.62.
In the case of GGADIVVIKYNVNDKFSFHEVKDN [I6V], the protein stability index is reported as 1.77.
GGADICVIKYNVNDKFSFHEVKDN [I6C] showed a protein stability index of 1.67.
GGADIIVIKYNVNDKFRFHEVKDN [S17R] showed a protein stability index of 2.35.
With GGADIIVIKYNVNDKFDFHEVKDN [S17D] the protein stability index was 2.64.
Variant GGADIIVIKYNVNDKFFFHEVKDN [S17F] has a protein stability index of 3.05.
Work on GGADIIVIKYNVNDVFSFHEVKDN [K15V] yielded a protein stability index of 3.95.
GGADIIVIKYNVNDPFSFHEVKDN [K15P] gave a protein stability index of 2.59.
For GGADIIVIKYNVNDNFSFHEVKDN [K15N], the protein stability index was 3.83.
With GGADIIVIKYNVNDYFSFHEVKDN [K15Y] the protein stability index was 2.75.
Variant GGADIIVIKYNVNDKNSFHEVKDN [F16N] has a protein stability index of 1.84.
GGADIIVIKYNVNDKVSFHEVKDN [F16V] gave a protein stability index of 1.98.
In the case of GGADIIVIKYNVNDKMSFHEVKDN [F16M], the protein stability index is reported as 2.04.
GGADIIVIKYNVNDKRSFHEVKDN [F16R] gave a protein stability index of 1.6.
Work on GGADIIVIKYNVNDKWSFHEVKDN [F16W] yielded a protein stability index of 4.02.
Variant GGADIIVIKYNVNDKSSFHEVKDN [F16S] has a protein stability index of 3.13.
GGADIIVIMYNVNDKFSFHEVKDN [K9M] showed a protein stability index of 3.15.
GGADIIVIFYNVNDKFSFHEVKDN [K9F] showed a protein stability index of 3.82.
GGADIIVIYYNVNDKFSFHEVKDN [K9Y] showed a protein stability index of 2.89.
Variant GGADIIVIDYNVNDKFSFHEVKDN [K9D] has a protein stability index of 1.66.
For GGADIIVIKYNSNDKFSFHEVKDN [V12S], the protein stability index was 1.9.
With GGADIIVIKYNRNDKFSFHEVKDN [V12R] the protein stability index was 2.8.
Variant GGADIIVIKYNHNDKFSFHEVKDN [V12H] has a protein stability index of 1.92.
Variant GGADIIVIKYNNNDKFSFHEVKDN [V12N] has a protein stability index of 2.66.
Variant GGADIIVIKYNENDKFSFHEVKDN [V12E] has a protein stability index of 1.72.
With GGADIIVIKYNINDKFSFHEVKDN [V12I] the protein stability index was 3.31.
In the case of GGADIIVIKYNDNDKFSFHEVKDN [V12D], the protein stability index is reported as 1.95.
With GGADIIVIKYNVNDKFSLHEVKDN [F18L] the protein stability index was 2.53.
In the case of GGADIIVIKYNVNDKFSSHEVKDN [F18S], the protein stability index is reported as 1.86.
With GGADIIVIKYNVNDKFSPHEVKDN [F18P] the protein stability index was 1.95.
GGADIIVIKYNVNDKFSGHEVKDN [F18G] showed a protein stability index of 2.03.
In the case of GGADIIVIKYNVNDKFSAHEVKDN [F18A], the protein stability index is reported as 3.47.
Variant GGADIIVIKYNVNDKFSYHEVKDN [F18Y] has a protein stability index of 2.72.
GGADIIVIKYNVNDKFSNHEVKDN [F18N] gave a protein stability index of 1.39.
Work on GGADIIVIKYNVNDKFSFHSVKDN [E20S] yielded a protein stability index of 2.76.
Variant GGADIIVIKYNVNDKFSFHDVKDN [E20D] has a protein stability index of 3.45.
GGADIISIKYNVNDKFSFHEVKDN [V7S] gave a protein stability index of 2.17.
GGADIIQIKYNVNDKFSFHEVKDN [V7Q] gave a protein stability index of 2.31.
GGADIIEIKYNVNDKFSFHEVKDN [V7E] gave a protein stability index of 3.28.
Work on GGADIIVSKYNVNDKFSFHEVKDN [I8S] yielded a protein stability index of 3.71.
With GGADIIVTKYNVNDKFSFHEVKDN [I8T] the protein stability index was 2.95.
GGADIIVRKYNVNDKFSFHEVKDN [I8R] gave a protein stability index of 3.17.
In the case of GLADIIVIKYNVNDKFSFHEVKDN [G2L], the protein stability index is reported as 1.71.
For GMADIIVIKYNVNDKFSFHEVKDN [G2M], the protein stability index was 3.43.
With GAADIIVIKYNVNDKFSFHEVKDN [G2A] the protein stability index was 1.69.
For GGADIIVIKYNVNDKFSFHEVGDN [K22G], the protein stability index was 2.76.
Variant GGADIIVIKYNVNDKFSFHEVWDN [K22W] has a protein stability index of 2.75.
For GGADIIVIKYNVNDKFSFHEVNDN [K22N], the protein stability index was 2.1.
In the case of GGKDIIVIKYNVNDKFSFHEVKDN [A3K], the protein stability index is reported as 2.65.
GGLDIIVIKYNVNDKFSFHEVKDN [A3L] gave a protein stability index of 2.64.
With GGSDIIVIKYNVNDKFSFHEVKDN [A3S] the protein stability index was 1.74.
In the case of GGFDIIVIKYNVNDKFSFHEVKDN [A3F], the protein stability index is reported as 3.37.
With GGADIIVIKYNVTDKFSFHEVKDN [N13T] the protein stability index was 1.57.
For GGADIIVIKYNVIDKFSFHEVKDN [N13I], the protein stability index was 2.93.
For GGADIIVIKYNVYDKFSFHEVKDN [N13Y], the protein stability index was 1.67.
With GGADIIVIKYNVEDKFSFHEVKDN [N13E] the protein stability index was 2.71.
GGADIIVIKYNVHDKFSFHEVKDN [N13H] gave a protein stability index of 2.57.
In the case of GGADIIVIKYNVWDKFSFHEVKDN [N13W], the protein stability index is reported as 1.96.
Variant GGADIIVIKYNVNKKFSFHEVKDN [D14K] has a protein stability index of 3.14.
GGADIIVIKYNVNAKFSFHEVKDN [D14A] gave a protein stability index of 3.34.
GGADIIVIKYNVNEKFSFHEVKDN [D14E] gave a protein stability index of 2.8.
Variant GGADIIVIKYNVNDKFSFHEYKDN [V21Y] has a protein stability index of 2.98.
For GGADIIVIKYNVNDKFSFHEIKDN [V21I], the protein stability index was 2.23.
For GGADIIVIKYNVNDKFSFHERKDN [V21R], the protein stability index was 2.42.
For GGADIIVIKYNVNDKFSFHEKKDN [V21K], the protein stability index was 2.59.
Work on GGADIIVIKYNVNDKFSFMEVKDN [H19M] yielded a protein stability index of 3.71.
Work on GGADIIVIKYNVNDKFSFIEVKDN [H19I] yielded a protein stability index of 1.54.
In the case of GGADIIVIKYHVNDKFSFHEVKDN [N11H], the protein stability index is reported as 3.1.
For GGADIIVIKYRVNDKFSFHEVKDN [N11R], the protein stability index was 2.45.
With GGADIIVIKYFVNDKFSFHEVKDN [N11F] the protein stability index was 1.97.
GGADIIVIKYAVNDKFSFHEVKDN [N11A] gave a protein stability index of 2.36.
GGADIIVIKYVVNDKFSFHEVKDN [N11V] gave a protein stability index of 3.99.
Variant GGADIIVIKYKVNDKFSFHEVKDN [N11K] has a protein stability index of 4.82.
In the case of GGADIIVIKYEVNDKFSFHEVKDN [N11E], the protein stability index is reported as 1.76.

Reference: the supplement of paper PMC10567573
